Legend:
[1] = Particle size of formulated nanoparticles (particle sizer); type: physicochemical; conditions: nanoparticles in water after TFF and 0.22 µm filtration
Protocol: (§1) The reaction mixture was worked up by precipitating the polymer in 15 volumes of acetone (150 mL). The polymer precipitated out immediately as a lump. The solution was stirred for 30 minutes and then the slightly turbid supernatant was decanted. The polymer precipitate was stirred in […] for 30 minutes and then dissolved 70 mL of water to prepare a ˜10 mg/mL polymer concentration. The polymer dissolved smoothly in water and the polymer solution was then filtered through a 0.22 p.m PES membrane. This solution was then washed using TFF (3×30K capsules) using 10 volumes of ultrapure water at pH 3. After diafiltration, the solution was concentrated down to approximately half the volume and the concentrated solution was filtered with a 0.22 p.m cellulose nitrate membrane. The filtered solution was analyzed for particle size using a particle sizer and Tofacitinib concentration using HPLC.
as §1, with “in 90” for “70”

[2] = Drug release and stability of CDP-linker-Tofacitinib conjugate nanoparticles in PBS; type: physicochemical; conditions: 1x PBS pH 7.4, 37° C.; for In vitro release of free drug (24 hrs in PBS at 37° C.): free drug/conjugated drug
Protocol: The drug release and stability method experiments were run using the following CDP-linker-Tofacitinib nanoparticles: CDP-Gly-Tofac (prepared by the method described in Example 5) and CDP-Hex-Tofac) (prepared by the method described in Example 10).
A 2.5 mg/mL (with regard to polymer) solution of each CDP-linker-Tofac nanoparticle was prepared in lx PBS buffer (pH=7.4). An aliquot of 150 μL was transferred into corresponding HPLC vials. A vial containing each CDP-linker-Tofac nanoparticle in PBS pH 7.4 for each designated time point was placed in a water bath at 37° C. Samples were mixed using a water bath shaker at 100 rpm during the experiments. At each designated time point, a vial was removed for each CDP-linker-Tofac nanoparticle and processed for HPLC using a sample preparation procedure.
To prepare a sample for HPLC analysis, each vial containing 150 μL of sample was mixed with 75 μL of 0.1% formic acid in acetonitrile. If there was any precipitated material in the vial, the contents were also stirred to dissolve the precipitate. If the sample was still opaque, an additional 25 μL of 0.1% formic acid in acetonitrile was added. HPLC analysis was used to determine the amount of free Tofacitinib and the amount of conjugated Tofacitinib in the sample for a given time point.
For the HPLC analysis at each time point, the peak areas of all relevant peaks from the chromatograms were retrieved and the concentration of free and conjugated Tofacitinib was calculated. The sample degradation was calculated based on the percentage of the amount of conjugated drug with regard to the initial starting point of the experiment (at t=0). The drug release was calculated based on the sum of free Tofacitinib and Tofacitinib main degradants at each time point.

[3] = Pharmacokinetic study, plasma levels of free and bound Tofacitinib by HPLC/MS/MS; type: in vivo, Mice (C57 B16 strain); design: Cl: unit not given here; conditions: mice; for AUC / Cl / Vd / t1/2: analyte: Conjugate, single bolus 3 mg/kg; for Bioavailability via SC, of the IV based on AUC / Half-life for conjugate after SC dosing relative to the IV dose: 3 mg/kg SC vs IV; for IV AUC relative to the drug dosed PO alone: conjugate IV vs unconjugated tofacitinib PO
Protocol: Mice (C57 B16 strain) were treated by single bolus injection of each linker at 3 mg/kg. Blood samples were collected from individual animals and plasma made using EDTA as an anticoagulant. Levels of free and bound Tofacitinib were measured in the plasma samples using HPLC/MS/MS.

[4] = test system: Adjuvant-Induced Arthritis (AIA) in Lewis Rat; assay: Lewis rat adjuvant-induced arthritis (AIA) model; type: in vivo; conditions: for % Max Change in Paw Volume / % Max Change in body weight: day of maximum in brackets; for Spleen weight with treatment (in words): regimens of Table 4
Description: Animal and Facility: 75 female Lewis Rats at the age of 6 weeks were allowed to acclimate for 7 days in the animal facility (Cephrim Biosciences, Inc., Wellesley, Mass.). Animal housing, handling and procedures followed protocols and guidelines approved by the Institutional Animal Care and Use Committee (IACUC) of Cephrim Biosciences, Inc.
In vivo Adjuvant-Induced Arthritis (AIA) in Lewis Rat: The adjuvant used for induction of arthritis was purchased from Chondrex Inc. (Redmond, Wash.), a suspension that contains 10 mg/mL of heat-killed mycobacteria in incomplete Freund's adjuvant. On the day of induction, the rat was first anesthetized and 0.05 mL of the Complete Freund's Adjuvant (CFA) was subcutaneously injected into the sub-plantar area of the rat footpad. The needle was inserted just under the skin of the footpad pointing toward the ankle to maximize the immune response to the CFA. The rat body weight, paw volumes and clinical assessments were monitored closely after the induction. Once the secondary swelling appeared around the opposite rat paws or ankles, the rats were assigned in one of 10 groups (N=5) according to the severity of arthritis (e.g. the paw volume) and the treatments started at that time (see Table 4).
Rat arthritis was evaluated for body weight, paw volumes and clinical score once every other day. Special care including placing water and food gel supplements in the cages were given for those rats once it became difficult to move around due to their hind limb arthritis. The severity of arthritis was scored by visual inspection. Three un-injected paws were scored on a scale of 0 to 4, where 0=normal; 1, only on few digits; 2, on the paw; 3, on the ankle and 4, all swelling below ankle. The maximum score was 12. In addition to daily scores, the maximum arthritis index (MAI) was calculated at the end of the study for each rat by adding the greatest score recorded for each paw. Foot swelling was also determined objectively by measuring paw volume with a plethysmograph for the secondary arthritis (un-injected foot) and thickness using a caliper for the primary arthritis (injected foot).
Treatment Preparation: Dexamethasone stock was first dissolved in dimethyl sulfoxide at 1 mg/ml and kept in dark at room temperature. The corresponding dosing solution was prepared prior to each treatment by a 1:10 fold dilution with phosphate buffered saline (PBS). The dexamethasone dosing solution was given to the rats subcutaneously (SC) at 10 mL/kg. Tofacitinib (unconjugated parent drug) was added in 5% methylcellulose at 1 mg/mL and 0.25% of Tween-80. A homogeneous dosing suspension of tofacitinib was prepared using a mechanical homogenizer. The tofacitinib suspension was prepared daily and was given to rats by an oral gavage at 10 mL/kg. CDP-hexanoate-tofacitinib conjugate nanoparticles were kept in 4° C. until the end of the dosing period. They were given to their respective groups of rats by subcutaneous route at 10 mL/kg.

[5] = Tofacitinib dosed 5 mg PO twice daily; cited from earlier work

| Spleen weight with treatment (in words) ([4]; AIA rats) | Molecule | Dv50 [1] | Dv90 [1] | Particle PDI [1] | Zavg [1] | In vitro degradation of conjugate (24 hrs in PBS at 37° C.) [2] | In vitro release of free drug (24 hrs in PBS at 37° C.) [2] | AUC ([3]; route IV, plasma) | Cl ([3]; route IV, plasma) | Vd ([3]; route IV, plasma) | t1/2 ([3]; route IV, plasma) | AUC ([3]; route SC, plasma) | Cl ([3]; route SC, plasma) | Vd ([3]; route SC, plasma) | t1/2 ([3]; route SC, plasma) | Half-life for conjugate after SC dosing relative to the IV dose [3] | IV AUC relative to the drug dosed PO alone [3] | further results |
| --- | --- | --- | --- | --- | --- | --- | --- | --- | --- | --- | --- | --- | --- | --- | --- | --- | --- | --- |
| – | CDP-Tofacitinib Ethylene Glycol Monoglycinate [CDP-Glycine-Tofacitinib] | 11.4 nm | 19.8 nm | 0.418 | 26.23 nm | 15.23% | 9.45% | 2061.85 µg·h/mL | 0.04 | 2.6 mL | 50 h | 1254.162 µg·h/mL | 0.06 | 2.4 mL | 28 h | doubling of half-life | ~1000 × | In vitro release of free drug (24 hrs in PBS at 37° C.) ([2]; listed as CDP-Glycine-Tofac): 9.45%; Bioavailability via SC, of the IV based on AUC [3]: 60%; Free levels, of the circulating conjugate ([3]; 3 mg/kg, plasma): less than 1% |
| declined | C[C@@H]1C[C@H]2[C@@H]3CCC4=CC(=O)C=C[C@]4(C)[C@@]3(F)[C@@H](O)C[C@]2(C)[C@@]1(O)C(=O)CO [Dexamethasone, reference compound] | – | – | – | – | – | – | – | – | – | – | – | – | – | – | – | – | AVE Spleen Weight ([4]; 1 mg/kg, q2d x 7, sc): 0.253 g; MAI (maximum arthritis index) ([4]; 1 mg/kg, q2d x 7, sc): 29; % Max Change in Paw Volume ([4]; 1 mg/kg, q2d x 7, sc): +26.5% (d13); % Max Change in body weight ([4]; 1 mg/kg, q2d x 7, sc): −13.5% (d18) |
| declined | C[C@@H]1CCN(C(=O)CC#N)C[C@@H]1N(C)c1ncnc2[nH]ccc12 [Tofacitinib, reference compound] | – | – | – | – | – | – | – | – | – | – | – | – | – | – | – | – | AVE Spleen Weight ([4]; 10 mg/kg, bid x 14, po): 0.392 g; MAI (maximum arthritis index) ([4]; 10 mg/kg, bid x 14, po): 30; % Max Change in Paw Volume ([4]; 10 mg/kg, bid x 14, po): +30.7% (D14); % Max Change in body weight ([4]; 10 mg/kg, bid x 14, po): −9.0% (d13); half-life [5]: 3 to 5 h |

| Molecule | Spleen weight with treatment (in words) ([4]; AIA rats) | Dv50 [1] | Dv90 [1] | Particle PDI [1] | Zavg [1] | In vitro degradation of conjugate (24 hrs in PBS at 37° C.) [2] | In vitro release of free drug (24 hrs in PBS at 37° C.) [2] | AUC ([3]; route IV, plasma) | Cl ([3]; route IV, plasma) | Vd ([3]; route IV, plasma) | t1/2 ([3]; route IV, plasma) | AUC ([3]; route SC, plasma) | Cl ([3]; route SC, plasma) | Vd ([3]; route SC, plasma) | t1/2 ([3]; route SC, plasma) | Half-life for conjugate after SC dosing relative to the IV dose [3] | IV AUC relative to the drug dosed PO alone [3] | further results |
| --- | --- | --- | --- | --- | --- | --- | --- | --- | --- | --- | --- | --- | --- | --- | --- | --- | --- | --- |
| CDP-Tofacitinib Ethylene Glycol Monohexanoate [CDP-Hexanoate-Tofacitinib] | maintained | 12.8 nm | 21.7 nm | 0.218 | 20.64 nm | 3.54% | 2.06% | 1030.865 µg·h/mL | 0.07 | 2.4 mL | 23.2 h | 569.866 µg·h/mL | 0.132 | 8.9 mL | 47 h | increased by two fold | ~1000 × | AVE Spleen Weight ([4]; 0.3 mg/kg, q7d x 2, sc): 0.643 g; MAI (maximum arthritis index) ([4]; 0.3 mg/kg, q7d x 2, sc): 41; % Max Change in Paw Volume ([4]; 0.3 mg/kg, q7d x 2, sc): +48.0% (d16); % Max Change in body weight ([4]; 0.3 mg/kg, q7d x 2, sc): −12.9% (d16); AVE Spleen Weight ([4]; 1 mg/kg, q7d x 2, sc): 0.642 g; MAI (maximum arthritis index) ([4]; 1 mg/kg, q7d x 2, sc): 46; % Max Change in Paw Volume ([4]; 1 mg/kg, q7d x 2, sc): +45.2% (d16); % Max Change in body weight ([4]; 1 mg/kg, q7d x 2, sc): −14.5% (d18); Paw volume as a percent of the initial paw volume (Day 1) ([4]; 3 mg/kg q7d×2 sc, after two cycles (28 days), FIG. 16): below 100%; AVE Spleen Weight ([4]; 3 mg/kg, q7d x 2, sc): 0.606 g; MAI (maximum arthritis index) ([4]; 3 mg/kg, q7d x 2, sc): 39; % Max Change in Paw Volume ([4]; 3 mg/kg, q7d x 2, sc): +42.5% (d16); % Max Change in body weight ([4]; 3 mg/kg, q7d x 2, sc): −9.3% (d13); Cumulative dose giving similar efficacy, of the cumulative dose of unconjugated tofacitinib ([4]; 3 mg/kg/week vs. 140 mg/kg/week): 2%; Ankle swelling after treatment, of initial paw volume ([4]; AIA rats, level of healthy rats): 100%; In vitro release of free drug (24 hrs in PBS at 37° C.) ([2]; listed as CDP-Hex-Tofac): 2.06%; Bioavailability via SC, of the IV based on AUC ([3]; 3 mg/kg): 60%; Bioavailability via SC, of the IV based on AUC ([3]; listed as CDP-Hexanoate-Tofacitinib Conjugate, 3 mg/kg): approximately 60%; Levels of released drug, of the total ([3]; 3 mg/kg, plasma): approximately 5% |
